Data on three molecules can be found in publication PMC7820495.

As a reminder, the Kd is the equilibrium constant for the complex coming apart.

The target of this assay is T1, GST-SVIP (Drosophila SVIP, CG32039), Q8IQC6.
T1 chain: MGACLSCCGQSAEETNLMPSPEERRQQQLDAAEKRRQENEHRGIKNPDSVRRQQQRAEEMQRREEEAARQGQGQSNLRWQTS
The experiment in a line: in vitro binding titration assay. Particulars: chain shown with the change;; parent: 0.70 uM.

B1: MBP-VCP^N-D1 (Drosophila VCP, N-terminal and first D1 ATPase domain), Q7KN62 R152H (protein)
chain: MADSKGEDLATAILKRKDRPNRLIVEEAQNDDNSVVSLSQAKMDELQLFRGDTVILKGKRRKETVCIVLSDDTCPDEKIRMNRVVRNNLCVHLSDVVSVQSCPDVKYGKRVRILPIDESTEGVTGNLFEIYLKPYFLEAYRPIHMGDNFIVHAAMRPIEFKVVLTDPEPYCIVAPETVIFCDGDPIKREEEEESLNAVGYDDIGGCRKQLAQIKEMVELPLRHPSLFKAIGVKPPRGILMYGPPGTGKTLIARAVANETGAFFFLINGPEIMSKLAGESESNLRKAFEEAEKNSPAIIFIDEIDAIAPKRDKTHGEVERRIVSQLLTLMDGMKKSSHLIVMAATNRPNSIDPALRRFGRFDREIDIGIPDATGRLEVLRIHTKNMKLHDDVDLEQIAAESHGHVGADLASLCSEAALQQIREKMDLIDLEDDKIDAEVLASLAVTMENFRYAMTKSSPSALRETVVEVPNTTWTDIGGLESVKKELQELVQYPVEHPDKFLKFGMQPSRGVLFYGPPGCGKTLLAKAIANECQANFISVKGPELLTMWFGESEANVRDIFDKARSAAPCVLFFDELDSIAKARGGNVGDAGGAADRVINQILTEMDGMGAKKNVFIIGATNRPDIIDPAILRPGRLDQLIYIPLPDDKSREAILKANLRKSPLAKEVDLTYIAKVTQGFSGADLTEICQRACKLAIRQAIEAEIRREKERAENQNSAMDMDEDDPVPEITSAHFEEAMKFARRSVSDNDIRKYEMFAQTLQQSRGFGQNFRFPGQTGNTSGSGNNLPVNSPGDNGDDDLYS
For the molecule B1, the Kd came to 640 nM.

B2: MBP-VCP^N-D1 (Drosophila VCP, N-terminal and first D1 ATPase domain), Q7KN62 A229E (protein)
chain: MADSKGEDLATAILKRKDRPNRLIVEEAQNDDNSVVSLSQAKMDELQLFRGDTVILKGKRRKETVCIVLSDDTCPDEKIRMNRVVRNNLCVHLSDVVSVQSCPDVKYGKRVRILPIDESTEGVTGNLFEIYLKPYFLEAYRPIHMGDNFIVRAAMRPIEFKVVLTDPEPYCIVAPETVIFCDGDPIKREEEEESLNAVGYDDIGGCRKQLAQIKEMVELPLRHPSLFKEIGVKPPRGILMYGPPGTGKTLIARAVANETGAFFFLINGPEIMSKLAGESESNLRKAFEEAEKNSPAIIFIDEIDAIAPKRDKTHGEVERRIVSQLLTLMDGMKKSSHLIVMAATNRPNSIDPALRRFGRFDREIDIGIPDATGRLEVLRIHTKNMKLHDDVDLEQIAAESHGHVGADLASLCSEAALQQIREKMDLIDLEDDKIDAEVLASLAVTMENFRYAMTKSSPSALRETVVEVPNTTWTDIGGLESVKKELQELVQYPVEHPDKFLKFGMQPSRGVLFYGPPGCGKTLLAKAIANECQANFISVKGPELLTMWFGESEANVRDIFDKARSAAPCVLFFDELDSIAKARGGNVGDAGGAADRVINQILTEMDGMGAKKNVFIIGATNRPDIIDPAILRPGRLDQLIYIPLPDDKSREAILKANLRKSPLAKEVDLTYIAKVTQGFSGADLTEICQRACKLAIRQAIEAEIRREKERAENQNSAMDMDEDDPVPEITSAHFEEAMKFARRSVSDNDIRKYEMFAQTLQQSRGFGQNFRFPGQTGNTSGSGNNLPVNSPGDNGDDDLYS
As to B2, the Kd was determined as 580 nM.

B3: MBP-VCP^N-D1 (Drosophila VCP, N-terminal and first D1 ATPase domain), Q7KN62 T259A (protein)
chain: MADSKGEDLATAILKRKDRPNRLIVEEAQNDDNSVVSLSQAKMDELQLFRGDTVILKGKRRKETVCIVLSDDTCPDEKIRMNRVVRNNLCVHLSDVVSVQSCPDVKYGKRVRILPIDESTEGVTGNLFEIYLKPYFLEAYRPIHMGDNFIVRAAMRPIEFKVVLTDPEPYCIVAPETVIFCDGDPIKREEEEESLNAVGYDDIGGCRKQLAQIKEMVELPLRHPSLFKAIGVKPPRGILMYGPPGTGKTLIARAVANEAGAFFFLINGPEIMSKLAGESESNLRKAFEEAEKNSPAIIFIDEIDAIAPKRDKTHGEVERRIVSQLLTLMDGMKKSSHLIVMAATNRPNSIDPALRRFGRFDREIDIGIPDATGRLEVLRIHTKNMKLHDDVDLEQIAAESHGHVGADLASLCSEAALQQIREKMDLIDLEDDKIDAEVLASLAVTMENFRYAMTKSSPSALRETVVEVPNTTWTDIGGLESVKKELQELVQYPVEHPDKFLKFGMQPSRGVLFYGPPGCGKTLLAKAIANECQANFISVKGPELLTMWFGESEANVRDIFDKARSAAPCVLFFDELDSIAKARGGNVGDAGGAADRVINQILTEMDGMGAKKNVFIIGATNRPDIIDPAILRPGRLDQLIYIPLPDDKSREAILKANLRKSPLAKEVDLTYIAKVTQGFSGADLTEICQRACKLAIRQAIEAEIRREKERAENQNSAMDMDEDDPVPEITSAHFEEAMKFARRSVSDNDIRKYEMFAQTLQQSRGFGQNFRFPGQTGNTSGSGNNLPVNSPGDNGDDDLYS
Take B3: the Kd was found to be 1230 nM.
